Measurements taken from US8673270B2, “RGD-containing peptidomimetics and uses thereof” (priority 2008, dated 2014).
Like-named read-outs stand apart in the source and are kept apart here.

Assays:
[1] = test system: LNCaP prostate cancer cells; assay: In-vivo prostate cancer model, IVIS imaging; settings: for Fluorescent level in excised organs: 14 hrs after injection, prostate and ovarian tumor-bearing mice; for Time of highest fluorescent level in tumor after injection: LNCaP prostate tumor
Toxicity study on rats = type: in vivo; settings: 50 mg/kg into tail vein; for Necrosis or inflammation in liver or kidneys: after five days
Description: The various conjugates at dose of 50 mg/kg were injected into the tail vein during 1-2 min.

[2] = test system: MDA-MB-231-RFP human breast cancer cells; assay: In-vivo breast cancer model, orthotopic large necrotic tumor, IVIS imaging; design: species or system CD-1 nude mice; settings: six days post injection, necrotic tumors 1-1.5 cm^3
Description: (xii) In-vivo breast cancer model. Female CD-1 nude mice (6-8 weeks old, 20-25 g, obtained from Harlan Biotech Israel, Rehovot, Israel) were implanted with MDA-MB-23′-RFP human breast cancer cells (4×10^6 cells/mouse). […] When tumors reached the size of 1-1.5 cm^3 for necrotic tumors, mice were anaesthetized by IP injection of 30 μl mixture of 85:15 ketamine:xylazine, and the test conjugate (15 mg/kg) was then injected to the tail vein.
In this study, the specific accumulation pattern of conjugates 1, 4 and 41 in orthotopic primary lesions of mammary carcinoma model, monitored by fluorescence signal generated by the tumor, and the fluorescence signal generated by these conjugates were examined. The localization of the conjugates in the tumors as time progress was also determined. Animals were treated as described in Materials and Methods, and fluorscence of both tumor cells and conjugates 1, 4 and 41 was monitored by IVIS® 100 imaging system from day 1 to 7.
FIGS. 1A, 1B and 1C show the accumulation patterns of conjugates 1, 4 and 41, respectively, in orthotopic human breast MDA-MB-231-RFP primary large tumor in the mammary pad of CD-1 nude female mice, using the Xenogen IVIS® System. Whole animal images° were recorded concomitantly using filter sets comprising excitation filter 500-550 nm and emission filter 575-650 nm. Background filter set for subtraction the tissue auto fluorescence: excitation filter 460-490 nm and emission filter 575-650 nm. Photosensitizer imaging main filter set: excitation filter 665-695 nm, emission filter 810-875 nm.

[3] = test system: MLS human ovarian carcinoma cells; assay: Integrin binding assay (in vitro), fluorescence imaging of cells incubated with conjugate; type: cell-based; settings: 100 μM/well, 3 hrs at 37° C., IVIS imaging
Description: (xv) In-vitro binding assay. MLS human ovarian carcinoma cells were cultured as monolayers in minimum essential medium (MEM-alpha) containing 1 g/l D-glucose, pH 7.4, 10% fetal calf serum (FCS), glutamine (2 mM), penicillin (0.06 mg/ml) and streptomycin (0.1 mg/ml), and were grown at 37° C. in 5% CO2-humidified atmosphere. At 48 hrs before experiment, cells were seeded at 6 well plates (3×10^5 cells/well).
Expression of αvβ3 integrin on MLS cells. The cells were grown on cover slips. Following overnight serum starvation, fixation with 4% paraformaldehyde (Sigma, Israel) and permeabilization with 0.2% Triton X-100 (Sigma, Israel), cells were incubated in blocking solution (10% of horse serum) (Biological Industries, Israel) for 1 hr at RT. Cells were then incubated with mouse anti-human αvβ3 integrin antibodies (1:100) (Chemicon, Biotest, Israel) for 1 hr at RT. Secondary rabbit FITC-labeled anti-mouse IgG (1:200) (Sigma, Israel) were applied to cells for 1 hr at RT. Imaging was performed by fluorescent microscope (Nikon Optiphot2, Japan) equipped with a digital camera (DVC Company, Inc., Austin, Tex.).
In vitro binding assay. RGD-conjugates were initially dissolved in DMSO to yields 4×10^−3 M. The stock solutions were then diluted 1:40 in culture medium and added into MILS or HT29 cells (100 μM/well). Cells were incubated at 37° C. in 5% CO2-humidified atmosphere for 3 hrs. Cells were then washed 3 times with PBS and images were performed on a Xenogen IVIS® 100 Series Imaging System. The excitation and emission filters set in the IVIS for BTA-RGD were 710-760 nm and 810-860 nm, respectively, and for FITC-RGD were 445-490 nm and 515-575 nm, respectively.

human αvβ3 integrin = biological target: T1, human αvβ3 integrin (Homo sapiens, UniProt P05106+P06756); assay: Competitive binding experiments (determination of IC50) against c[RGDfK]-biotin, ELISA; settings: competition with c[RGDfK]-biotin (10^−3M), coated integrin
T1 construct: purchased Chemicon
Description: (viii) Integrin binding test by ELISA. Nunc immuno-module strips (Nunclon, Cat#167008, Daniel Biotech, Israel) were coated for overnight with 2 μg/ml human integrin αvβ3 (Chemicon, Cat#CC1020, Biotest, Israel) dissolved in 0.06 M carbonate-bicarbonate buffer. Strips were blocked for 2 hrs at RT with 2% bovine serum albumin (BSA) (Sigma, Cat#A-9647, Israel) in phosphate buffered saline (PBS) (Biological Industries, Israel). A mixture of c[RGDfK]-biotin (10^−3M) and a test compound at different concentrations (10^−2, 10^−3, 10^−4 and 10^−5M) diluted in assay buffer (50 mM Tris HCl, pH=7.7, 0.5% BSA, 0.15 M NaCl, 0.01% Tween 20) was added to the coated strips and was incubated overnight at RT with shaking. After washing with PBS, anti-biotin antibodies labeled by alkaline phosphatase (1:200) (Miltenyi Biotec, Almog, Israel) were added and incubated for 1 hr at RT. The samples were incubated with p-nitrophenyl phosphate substrate (p-NPP, Calbiochem, Mercury, Israel) and read at 405 nm.
(xvi) Competitive binding experiments (determination of IC50). Immuno-module strips MAXISORP (Nunc, Danyel Biotech, Israel) were coated with 50 μl/well of 2 μg/ml human αvβ3 integrin (Chemicon, USA) overnight and blocked with 2% BSA (Sigma, Israel) for 2 hrs at RT. After wash with Tris buffered saline-Tween (TBST) buffer, a mixture of RGD peptide c[RGDfK]-biotin (10^−3M) and the tested RGD-conjugate at different concentrations (10^−2, 10^−3, 10^−4 and 10^−5 M) was added in triplicates and was incubated overnight and shaken at RT. After wash with PBS buffer, anti-biotin antibodies labeled by alkaline phosphatase (1:200) (Miltenyi Biotec, Germany) were added and incubated for 1 hr at RT. The samples were incubated with p-NPP substrate and read at 405 nm on Multiscan Spectrum (Labotal, Israel). The data were plotted to graph of dependence of binding percent out of concentration of RGD-conjugate and IC50 value was determined. […]

[4] = test system: MLS human ovarian carcinoma cells; design: species or system CD-1 nude mice; settings: mouse, in vivo
Source text: (ix) In-vivo ovarian carcinoma model. Female CD-1 nude mice (7-9 weeks old, 23-28 gr) were anaesthetized and subcutaneously (SC) implanted with MLS human ovarian carcinoma cells (obtained from Prof. M. Neeman, the Weizmann Institute of Science, Israel) suspension (2-3×10^6 cells/mouse). Tumors reached treatment size, diameter 6-8 mm, within 2-3 weeks.
Animals were anaesthetized by gas with mixture of 7:3 N2O:O2 containing 2% isofluorane (Medeva, Bethlehem, Pa.) or by intraperitoneal (IP) injection with mixture of 5 mg/kg ketamine (Rhone Merieux, Lyon, France) and 1 mg/kg pompun (Bayer, Leverkusen, Germany) (85:15, v:v).
(xiii) Fluorescent imaging protocol for BTA-RGD conjugates. Test compounds (8 mg/kg) were injected into the tail vein of IP anaesthetized tumor-bearing mice. Images of gas-anaesthetized animals were taken at 6, 8, 10, 12, 14 and 24 hrs (in some cases also at 48 and 72 hrs) after injection using IVIS® 100 Series Imaging System. The excitation and emission filters were set in the IVIS to 710-760 nm and to 810-860 nm, respectively. The emission filter with wavelength closest to the emission peak of the compound was selected among available filters in the standard configuration of IVIS.
(xiv) Fluorescent imaging protocol for FITC-RGD conjugates. Test compounds (8 mg/kg) were injected into the tail vein of IP anaesthetized tumor-bearing mice. Images of gas-anaesthetized animals were taken at 6 and 8 hrs after injection. Animals were sacrificed at 8 hrs, the organs (tumor, kidney, liver) were excited and images of the organs were taken using IVIS® 100 Series Imaging System. The excitation and emission filters were set in the IVIS to 445-490 nm and to 515-575 nm, respectively. The emission filter with wavelength closest to the emission peak of FITC was selected among available filters in the standard configuration of IVIS.

[5] = test system: LNCaP prostate cancer cells; settings: mouse, in vivo

Compound | Fluorescent level in excised organs [1] | Time of highest fluorescent level in tumor after injection [1] | Survival, behavior and motility (Toxicity study on rats) | Necrosis or inflammation in liver or kidneys (Toxicity study on rats) | Localization of conjugate within breast tumor [2] | Integrin binding assay (in vitro) [3] | IC50 (human αvβ3 integrin) | Time of highest fluorescent level in tumor after injection [4] | Time the conjugate stayed in the tumor [4] | Time of highest fluorescent level in tumor after injection [5]
CCC1c2cc3[nH]c(c(CC(=O)OC)c4nc(cc5[nH]c(cc(n2)C1C)c(C(C)=O)c5C)C(C)C4CCC(=O)N[C@H]1CCCNC(=O)[C@H](CC(=O)O)NC(=O)CNC(=O)[C@H](CCCNC(=N)N)NC(=O)NCCNC1=O)c(C(=O)NCCS(=O)(=O)O)c3C (some centres unmarked) [Conjugate 4] | high fluorescent level observed in the liver and kidney | 8 to 14 h | Animals were survived and did not show any behavior or motility problems | no evidence of necrosis or inflammation was found in the liver or the kidneys | Accumulate in the Necrotic Core of MDA Necrotic Tumors | Binding | 300 µM | 8 to 14 h | up to 48 hrs | 
CCC1c2cc3[nH]c(c(CC(=O)OC)c4nc(cc5[nH]c(cc(n2)C1C)c(C(C)=O)c5C)C(C)C4CCC(=O)NCCCC[C@@H]1NC(=O)N[C@@H](Cc2ccccc2)C(=O)NC[C@@H](C(N)=O)NC(=O)[C@H](CC(=O)O)NC(=O)CNC(=O)[C@H](CCCNC(=N)N)NC1=O)c(C(=O)NCCS(=O)(=O)O)c3C (some centres unmarked) [Conjugate 41] |  |  | Animals were survived and did not show any behavior or motility problems | no evidence of necrosis or inflammation was found in the liver or the kidneys | Accumulate in the Necrotic Core of MDA Necrotic Tumors | In vitro: binding | 100 µM | 8 to 12 h | ≤ 24 h | 8 to 12 h
CCC1c2cc3[nH]c(c(CC(=O)OC)c4nc(cc5[nH]c(cc(n2)C1C)c(C(C)=O)c5C)C(C)C4CCC(=O)N[C@H]1CNC(=O)[C@H](CC(=O)O)NC(=O)CNC(=O)[C@H](CCCNC(=N)N)NC(=O)NCCNC1=O)c(C(=O)NCCS(=O)(=O)O)c3C (some centres unmarked) [Conjugate 1] | high fluorescent level observed in the liver and kidney | 8 to 11 h | Animals were survived and did not show any behavior or motility problems | no evidence of necrosis or inflammation was found in the liver or the kidneys | Accumulate in the Necrotic Core of MDA Necrotic Tumors | Binding | 100 µM | 8 to 11 h | up to 48 hrs | 
